From PMC3546842, “Using BAC transgenesis in zebrafish to identify regulatory sequences of the amyloid precursor protein gene in humans”

Molecular target: T1, E4BP4-DBD (NFIL3 DNA-binding domain) (zebrafish, UniProt Q68EL6 18-164)
T1 sequence: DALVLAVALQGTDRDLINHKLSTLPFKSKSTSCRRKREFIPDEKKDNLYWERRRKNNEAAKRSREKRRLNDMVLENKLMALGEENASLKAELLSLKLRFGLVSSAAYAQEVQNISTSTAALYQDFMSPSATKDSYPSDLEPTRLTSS
Assay: EMSA; not given; EMSA performed as in an earlier cited paper (ref 25)
Conditions: protein: recombinant; tags: N-terminal His6; additional pET-30a(+) vector residues; chain copies: 2

Binder | binding result
probe c (dsDNA) DNA 1: ATTAAATTTTATGTAAAAATATGT DNA 2: ACATATTTTTACATAAAATTTAAT | binds
probe a (dsDNA) DNA 1: AATAAATGTTACATAATCCAAAGTC DNA 2: GACTTTGGATTATGTAACATTTATT | binds
probe b (dsDNA) DNA 1: GTAAGCTTTTATGTAAGTATTTTG DNA 2: CAAAATACTTACATAAAAGCTTAC | binds
probe e (E4BP4 site E11) (dsDNA) DNA 1: TGGTCAGTATTGTTATTACATAAGACATCAGCAAT DNA 2: ATTGCTGATGTCTTATGTAATAACAATACTGACCA | binds
probe d (dsDNA) DNA 1: ATTGGTTCATTATGTAACTTTCCCAT DNA 2: ATGGGAAAGTTACATAATGAACCAAT | binds
